# Experimental data published in patent US20220281936.
# T1: Mouse IL12 (unmodified)
# T1 chain 1: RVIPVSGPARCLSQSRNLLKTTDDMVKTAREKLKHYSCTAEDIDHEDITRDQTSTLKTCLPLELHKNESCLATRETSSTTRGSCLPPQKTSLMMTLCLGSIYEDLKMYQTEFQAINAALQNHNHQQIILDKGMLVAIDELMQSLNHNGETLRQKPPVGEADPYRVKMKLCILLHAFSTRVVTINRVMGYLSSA
# T1 chain 2: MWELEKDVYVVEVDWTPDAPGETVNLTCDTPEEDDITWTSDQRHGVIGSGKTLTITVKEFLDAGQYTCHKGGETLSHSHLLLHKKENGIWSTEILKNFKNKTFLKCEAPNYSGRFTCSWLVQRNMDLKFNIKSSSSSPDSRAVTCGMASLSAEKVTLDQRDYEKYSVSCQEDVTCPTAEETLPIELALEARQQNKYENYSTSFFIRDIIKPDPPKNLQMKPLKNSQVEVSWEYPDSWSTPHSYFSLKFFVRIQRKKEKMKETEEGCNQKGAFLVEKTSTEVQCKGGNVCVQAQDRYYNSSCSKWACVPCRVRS
# B1: Recombinant mouse MMP9 (protein)
# chain: FQTFKGLKWDHHNITYWIQNYSEDLPRDMIDDAFARAFAVWGEVAPLTFTRVYGPEADIVIQFGVAEHGDGYPFDGKDGLLAHAFPPGAGVQGDAHFDDDELWSLGKGVVIPTYYGNSNGAPCHFPFTFEGRSYSACTTDGRNDGTPWCSTTADYDKDGKFGFCPSERLYTEHGNGEGKPCVFPFIFEGRSYSACTTKGRSDGYRWCATTANYDQDKLYGFCPTRVDATVVGGNSAGELCVFPFVFLGKQYSSCTSDGRRDGRLWCATTSNFDTDKKWGFCPDQGYSLFLVAAHEFGHALGLDHSSVPEALMYPLYSYLEGFPLNKDDIDGIQYLYGRGSKPDPRPPATTTTEPQPTAPPTMCPTIPPTAYPTVGPTVGPTGAPSPGPTSSPSPGPTGAPSPGPTAPPTAGSSEASTESLSPADNPCNVDVFDAIAEIQGALHFFKDGWYWKFLNHRGSPLQGPFLTARTWPALPATLDSAFEDPQTKRVFFFSGRQMWVYTGKTVLGPRSLDKLGLGPEVTHVSGLLPRRLGKALLFSKGRVWRFDLKSQKVDPQSVIRVDKEFSGVPWNSHDIFQYQDKAYFCHGKFFWRVSFQNEVNKVDHEVNQVDDVGYVTYDLLQCP
# How the values were obtained:
# Mouse IL12 (unmodified) = molecular target: T1, Mouse IL12 (unmodified)
protein,measurement,setting,value
B1,"proteolytic cleavage, SDS-PAGE (30 min, 37 C)",IL12Rβ1-VP-IL12,"MMP2 and MMP9 fully cleaved the IL12Rβ1 portion, yielding IL12 heterodimer (-60 kDa)"
same,"proteolytic cleavage, SDS-PAGE",Mouse IL12 (unmodified),These enzymes had no effect on IL12 itself
